Several values for one entry are separate records, joined by “and”; a condition that tells them apart may be missing. Identical values can stand only once.
Key:
[1] = biological target: T1, human c-Met, membrane-bound on cells (human, UniProt P08581 25-1390); assay: flow cytometry on A431 cells (PE goat anti-human IgG); third panel
T1 construct: whole, on cells; A431 cells carry on average 30,000 copies of c-Met per cell (Qifi); also called c-Met expressed on A431 cells; c-Met on A549 cells
Description: (§1) The binding of anti-c-Met antibodies and monovalent forms thereof (also termed “UniBody molecules” herein, see Example 5) to A431 cells expressing membrane-bound c-Met (purchased at ATCC, CRL-1555) was tested using flow cytometry (FACS Canto II, BD Biosciences). […] Binding of anti-c-Met antibodies and UniBody molecules was detected using a Phycoerythrin-conjugated goat-anti-human IgG antibody (Jackson). IgG1-5D5 was used as positive control antibody, and HuMab-KLH was used as isotype control antibody. EC₅₀ values were determined by means of non-linear regression (sigmoidal dose-response with variable slope) using GraphPad Prism V4.03 software (GraphPad Software, San Diego, Calif., USA).
(§2) Also maximum binding levels were unchanged between IgG1's and UniBody molecules. For antibodies 005, 006, 008, 035, 045 and 058, on the other hand, a more than 2-fold […] as well as a decrease in maximum binding level was observed when comparing IgG1 with their UniBody counterpart. This was most likely due to the […] (Kd) of these antibodies (see Example 14).

[2] = biological target: T1, human c-Met, membrane-bound on cells; assay: flow cytometry on A431 cells (PE goat anti-human IgG); third panel; curve not saturated
Description: as §1, §2

[3] = biological target: T1, human c-Met, membrane-bound on cells; assay: flow cytometry on A431 cells (PE goat anti-human IgG); top panel
Description: as §1, §2

[4] = biological target: T2, recombinant human c-Met extracellular domain (R&D systems) (human, UniProt P08581 25-932); assay: competition ELISA on coated recombinant c-Met extracellular domain; blocked ligand Europium-conjugated HGF; column headed EC50 on the sheet, called IC50 in paragraph 270; lower panel
T2 construct: extracellular domain; Bought reagent; also called coated extracellular domain of c-Met; recombinant c-Met
Description: (§3) ELISA wells were coated overnight at 4° C. with 0.5 μg/mL recombinant human c-Met extracellular domain (R&D systems, Minneapolis, USA) diluted in PBS. Next, the ELISA wells were washed with PBST (PBS supplemented with 0.05% Tween-20 [Sigma-Aldrich, Zwijndrecht, The Netherlands]) and blocked for one hour at room temperature (RT) with PBST supplemented with 2% (v/v) chicken serum (Gibco, Paisley, Scotland). […] Mean fluorescence intensity at 615 nm was measured using the EnVision 2101 Multilabel reader (PerkinElmer) applying the following settings: Lance/Delfia dual mirror, emission filter 615, excitation filter 340 nm, delay time 400 μs, window 400 μs, 100 flashes, 2000 μs per cycle and bidirectional row-by-row reading. To determine IC₅₀ values, the binding curves were analyzed with non-linear regression (sigmoidal dose-response with variable slope, top-values constrained to a shared value for all data-sets) using GraphPad Prism V4.03 software (GraphPad Software, San Diego, Calif., USA).
(§4) FIG. 5 depicts representative examples of HGF binding inhibition curves of anti-c-Met antibodies for binding to the extracellular domain of recombinant human c-Met. 5D5 was used as positive control antibody. All anti-c-Met antibodies in the experiment shown were able to compete with Europium^{3±}-conjugated HGF for binding to recombinant c-Met. […] Without adding Europium³⁺-conjugated HGF, roughly ˜600 relative fluorescent units (RFU) were detected, indicating the signal when maximal inhibition is accomplished. When binding of Europium³⁺-conjugated HGF was not inhibited, approximately ˜66,000 RFU were detected.

[5] = biological target: T1, human c-Met, membrane-bound on cells; assay: flow cytometry on A431 cells (PE goat anti-human IgG); bottom panel
Description: as §1, §2

[6] = biological target: T2, recombinant human c-Met extracellular …; assay: competition ELISA, residual Europium-HGF signal at 615 nm at the lower plateau of the fit; sheet prints no competing mAb ~66000, no HGF-Europium ~600; lower panel
Description: as §3, §4

[7] = biological target: T3, rhHGF R/Fc Chimera (R&D Systems; Cat.358MT/CF) (human, UniProt P08581 25-932); assay: ELISA on coated rhHGF R/Fc Chimera
T3 construct: Bought reagent; Fc part of the bought chimera not given; not described
Description: c-Met binding properties of the mutants were tested in an ELISA. ELISA plate wells were coated overnight at 4° C. with rhHGF R/Fc Chimera (R&D Systems; Cat.358MT/CF) in PBS (1 μg/mL). Next, the wells were washed with PBST (PBS supplemented with 0.05% Tween-20 [Sigma-Aldrich, Zwijndrecht, The Netherlands]) and blocked for one hour at room temperature (RT) with PBSTC (PBST supplemented 2% [v/v] chicken serum [Gibco, Paisley, Scotland]). Subsequently, the wells were washed with PBST and incubated for one hour at RT with the anti-cMet antibodies and variants serially diluted in PBSTC (10 μg/mL in 4-fold dilutions). […] After washing, the reaction was visualized by a 15 min incubation with 2,2′-azino-bis(3-ethylbenzothiazoline-6-sulfonic acid) (ABTS: dilute one ABTS tablet in 50 mL ABTS buffer [Roche Diagnostics, Almere, The Netherlands]) at RT protected from light. The colorization was stopped by adding an equal volume of oxalic acid (Sigma-Aldrich, Zwijndrecht, The Netherlands). […] at 405 nm was measured on a microtiter plate reader (Biotek Instruments, Winooski, USA).

Binder	IC50 [4] [µg/mL]	EC50 [5] [nM]	Bottom [6] [RFU]	other results
anti-c-Met HuMab 045 (IgG1) (antibody, V domains shown, also called TH1016-045; PC1016-045) VH: EVQLLESGGGLVQPGGSLRLSCAASGFTFSSYAMSWVRQAPGKGLEWVSVISGSGGITYYADSVKGRFTISRDNSKNTLYLQMNSLRAEDTAVYYCARDRGWGSDYWGQGTLVTVSS VL: EIVLTQSPATLSLSPGERATLSCRASQSVSSYLAWYQQKPGQAPRLLIYDASNRATGIPARFSGSGSGTDFTLTISSLEPEDFAVYYCQQRSNWPFTFGPGTKVDIK				EC50 [1]: 0.692 nM
IgG1-024 (antibody, V domains shown, also called TH1016-024; PC1016-024) VH: EVQLLESGGGLVQPGGSLRLSCVASGFTFSSYAMSWVRQAPGKGLEWVSAISGSSGGSTYYVDSVKGRFTISRANSKNTLYLQMNSLRAEDTAVYYCAKDLDRGWMGYFGYWGQGTLVTVSS VL: DIQMTQSPSSVSASVGDRVTITCRASQGISSWLAWYQHKPGKAPKLLIYAASSLQSGVPSRFSGSGSGTDFTLTISSLQPEDFATYYCQQANSFPTFGQGTRLEIK				EC50 [2]: ~3.19 nM
anti-c-Met HuMab 006 (IgG1) (antibody, V domains shown, also called TH1016-006; PC1016-006) VH: QVQLVQSGAEVKKPGSSVKVSCKASGGTFSSFGIGWVRQAPGQGLEWMGRIFPILGTANYAQMFQGRVTITADKSTSTAYMELTSLRSEDTAVYYCARDVGYDSADAFDIWGQGTMVTVSS VL: DIQMTQSPSSLSASVGDRVTITCRASQGISSWLAWYQQKPEKAPKSLIYAASSLQSGVPSRFSGSGSGTDFTLTISSLQPEDFATYYCQQYNSYPPTFGQGTKVEIK				EC50 [3]: 2.32 nM
anti-c-Met HuMab 098 (IgG1) (antibody, V domains shown, also called TH1016-098; PC1016-098) VH: QVQLVQSGAEVKKPGASVKVSCKASGYTFTNFGISWVRQAPGQGLEWMGWISAFNGHTDYSQKVQGRVTMTTDTSTSTAYMELRSLRSDDTAVFYCARSHYYGSGSPFDYWGQGTLVTVSS VL: DIQMTQSPSSLSASVGDRVTITCRASQGISNWLAWYQQKPEKAPKSLIYAASSLQSGVPSRFSGSGSGTDFTLTISSLQPEDFATYYCHQYKSYPWTFGQGTKVEIK	0.0135	0.9	12700	
anti-c-Met HuMab 101 (IgG1) (antibody, V domains shown) VH: QVQLVQSGGEVKKPGASVKVSCKASGYTFTRHGITWVRQAPGQGLEWMGWISADNGNTNYAQKFQDRVTMTTDTSTSTAYMELRSLRSDDTAVYFCARVFRYFDWLLPYFDYWGQGTLVTVST VL: not shown	0.0558	1.03	8380	
IgG1-1016-069 (antibody, V domains shown, also called clone 069; TH1016-069) VH: QVQLVQSGAEVKKPGASVKVSCETSGYTFTSYGISWVRQAPGHGLEWMGWISAYNGYTNYAQKLQGRVTMTTDTSTSTAYMELRSLRSDDTAVYYCARDLRGTNYFDYWGQGTLVTVSS VL: DIQMTQSPSSVSASVGDRVTITCRASQGISNWLAWFQHKPGKAPKLLIYAASSLLSGVPSRFSGSGSGTDFTLTISSLQPEDFATYYCQQANSFPITFGQGTRLEIK	0.0267	0.547	15000	EC50 [7]: 0.0495 µg/mL and 0.0454 µg/mL
anti-c-Met HuMab 181 (IgG1) (antibody, V domains shown, also called TH1016-181; PC1016-181) VH: QVQLVQSGAEVKKPGASVKVSCKASGYTFTSYGISWVRQAPGQGLEWMGWISTYNGYTNYAQKLQGRVTMTTDTSTSTAYMELRSLRSDDTAVYYCARDLRGTAYFDYWGQGTLVTVSS VL: DIQMTQSPSSVSASVGDRVTITCRASQGISNWLAWYQHKPGKAPKLLIYAASSLLSGVPSRFSGSGSGTDFTLTISSLQPEDFATYYCQQANSFPITFGQGTRLEIK	0.0103	0.679	16300	
anti-c-Met HuMab 035 (IgG1) (antibody, V domains shown, also called P1016-035; TH1016-035-D09) VH: EVQLVQSGAEVKKPGESLKISCKGSGYSFTSYWIGWVRQMPGKGLEWMGIIYPGDSDTRYSPSFQGQVTISADKSISTAYLQWNSLKASDTAMYYCARQEITGEFDYWGQGTLVTVSS VL: AIQLTQSPSSLSASVGDRVTITCRASQGISSALAWYQQKPGKAPKLLIYDASSLESGVPSRFSGSGSGTDFTLTISSLQPEDFATYYCQQFNSYPMYTFGQGTKLEIK				EC50 [1]: 1.78 nM

Source: patent US20150329642A1 (Genmab, published 2015)
